Test results reported in PMC10397247.
Blank lines part the entries; values can stand above or below the binder they belong to.

Assays:
[1] = target: T1, 4H3395-AA; experiment: two-hybrid library CCmax; settings: mean of both orientations;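 note: natural log of median RNA to DNA barcode read ratio; higher means stronger binding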
T1 chain: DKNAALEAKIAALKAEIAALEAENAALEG

[2] = target: T2, 4H3381-AA; experiment: two-hybrid library CCmax; settings: mean of both orientations;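 note: natural log of median RNA to DNA barcode read ratio; higher means stronger binding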
T2 chain: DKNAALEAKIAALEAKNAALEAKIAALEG

[3] = target: T3, 4H536-AA; experiment: two-hybrid library CCmax; settings: mean of both orientations;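 note: natural log of median RNA to DNA barcode read ratio; higher means stronger binding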
T3 chain: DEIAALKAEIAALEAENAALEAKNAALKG

[4] = target: T4, 4H2438-AA; experiment: two-hybrid library CCmax;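 note: natural log of median RNA to DNA barcode read ratio; higher means stronger binding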
T4 chain: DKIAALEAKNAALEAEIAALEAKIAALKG

[5] = target: T5, 4H3753-AA; experiment: two-hybrid library CCmax; settings: mean of both orientations;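 note: natural log of median RNA to DNA barcode read ratio; higher means stronger binding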
T5 chain: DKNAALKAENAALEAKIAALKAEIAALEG

[6] = target: T6, 4H94-AA; experiment: two-hybrid library CCmax; settings: mean of both orientations;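 note: natural log of median RNA to DNA barcode read ratio; higher means stronger binding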
T6 chain: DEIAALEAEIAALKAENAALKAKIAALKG

[7] = target: T7, 4H2649-AA; experiment: two-hybrid library CCmax; settings: mean of both orientations
T7 chain: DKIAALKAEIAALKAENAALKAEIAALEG

[8] = target: T8, 4H3865-AA; experiment: two-hybrid library CCmax; settings: mean of both orientations
T8 chain: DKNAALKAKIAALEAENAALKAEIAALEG

[9] = target: T9, 4H710-AA; experiment: two-hybrid library CCmax
T9 chain: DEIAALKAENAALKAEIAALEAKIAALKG

[10] = target: T10, 4H3590-AA; experiment: two-hybrid library CCmax; settings: mean of both orientations
T10 chain: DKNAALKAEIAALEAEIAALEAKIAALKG

[11] = target: T11, 4H745-AA; experiment: two-hybrid library CCmax; settings: mean of both orientations
T11 chain: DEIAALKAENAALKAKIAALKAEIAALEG

[12] = target: T12, 4H629-AA; experiment: two-hybrid library CCmax; settings: mean of both orientations
T12 chain: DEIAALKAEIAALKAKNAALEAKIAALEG

[13] = target: T13, 4H485-AA; experiment: two-hybrid library CCmax; settings: mean of both orientations
T13 chain: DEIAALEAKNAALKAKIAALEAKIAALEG

[14] = target: T14, 4H3009-AA; experiment: two-hybrid library CCmax; settings: mean of both orientations
T14 chain: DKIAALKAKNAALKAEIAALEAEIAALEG

[15] = target: T15, 4H909-AA; experiment: two-hybrid library CCmax; settings: mean of both orientations
T15 chain: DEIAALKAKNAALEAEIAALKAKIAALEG

[16] = target: T16, 4H458-AA; experiment: two-hybrid library CCmax; settings: mean of both orientations
T16 chain: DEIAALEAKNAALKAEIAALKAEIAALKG

[17] = target: T17, 4H797-AA; experiment: two-hybrid library CCmax; settings: mean of both orientations
T17 chain: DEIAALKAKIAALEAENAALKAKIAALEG

[18] = target: T18, 4H570-AA; experiment: two-hybrid library CCmax; settings: mean of both orientations
T18 chain: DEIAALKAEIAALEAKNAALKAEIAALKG

[19] = target: T19, 4H930-AA; experiment: two-hybrid library CCmax; settings: mean of both orientations
T19 chain: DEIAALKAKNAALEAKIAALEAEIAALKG

[20] = target: T20, 4H3130-AA; experiment: two-hybrid library CCmax; settings: mean of both orientations
T20 chain: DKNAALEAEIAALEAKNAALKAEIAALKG

[21] = target: T21, 4H310-AA; experiment: two-hybrid library CCmax; settings: mean of both orientations
T21 chain: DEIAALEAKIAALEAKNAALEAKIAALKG

[22] = target: T22, 4H2725-AA; experiment: two-hybrid library CCmax; settings: mean of both orientations
T22 chain: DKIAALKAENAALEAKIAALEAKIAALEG

[23] = target: T23, 4H850-AA; experiment: two-hybrid library CCmax; settings: mean of both orientations
T23 chain: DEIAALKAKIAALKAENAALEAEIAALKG

[24] = target: T24, 4H891-AA; experiment: two-hybrid library CCmax; settings: mean of both orientations
T24 chain: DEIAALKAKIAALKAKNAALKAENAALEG

[25] = target: T25, 4H2473-AA; experiment: two-hybrid library CCmax; settings: mean of both orientations
T25 chain: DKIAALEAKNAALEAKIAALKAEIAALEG

[26] = target: T26, 4H3410-AA; experiment: two-hybrid library CCmax; settings: mean of both orientations
T26 chain: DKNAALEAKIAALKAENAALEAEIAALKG

[27] = target: T27, 4H3016-AA; experiment: two-hybrid library CCmax; settings: mean of both orientations
T27 chain: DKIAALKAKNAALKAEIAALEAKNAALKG

[28] = target: T28, 4H3165-AA; experiment: two-hybrid library CCmax; settings: mean of both orientations
T28 chain: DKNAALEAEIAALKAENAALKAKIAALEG

[29] = target: T29, 4H2865-AA; experiment: two-hybrid library CCmax; settings: mean of both orientations
T29 chain: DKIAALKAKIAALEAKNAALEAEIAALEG

[30] = target: T30, 4H2698-AA; experiment: two-hybrid library CCmax; settings: mean of both orientations
T30 chain: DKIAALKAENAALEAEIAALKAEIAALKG

[31] = target: T31, 4H3697-AA; experiment: two-hybrid library CCmax; settings: mean of both orientations
T31 chain: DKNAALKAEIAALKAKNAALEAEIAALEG

[32] = target: T32, 4H3120-AA; experiment: two-hybrid library CCmax; settings: mean of both orientations
T32 chain: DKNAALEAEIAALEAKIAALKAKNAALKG

[33] = target: T33, 4H3777-AA; experiment: two-hybrid library CCmax; settings: mean of both orientations
T33 chain: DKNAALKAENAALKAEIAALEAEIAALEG

[34] = target: T34, 4H3414-AA; experiment: two-hybrid library CCmax; settings: mean of both orientations
T34 chain: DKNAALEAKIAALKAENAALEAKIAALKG

[35] = target: T35, 4H432-AA; experiment: two-hybrid library CCmax; settings: mean of both orientations
T35 chain: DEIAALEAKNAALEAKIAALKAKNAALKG

[36] = target: T36, 4H3449-AA; experiment: two-hybrid library CCmax; settings: mean of both orientations
T36 chain: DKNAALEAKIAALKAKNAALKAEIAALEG

[37] = target: T37, 4H3619-AA; experiment: two-hybrid library CCmax; settings: mean of both orientations
T37 chain: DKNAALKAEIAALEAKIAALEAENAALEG

[38] = target: T38, 4H3969-AA; experiment: two-hybrid library CCmax; settings: mean of both orientations
T38 chain: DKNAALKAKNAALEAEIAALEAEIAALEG

[39] = target: T39, 4H341-AA; experiment: two-hybrid library CCmax; settings: mean of both orientations
T39 chain: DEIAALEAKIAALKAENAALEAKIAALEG

[40] = target: T40, 4H3782-AA; experiment: two-hybrid library CCmax; settings: mean of both orientations
T40 chain: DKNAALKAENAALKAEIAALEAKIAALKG

[41] = target: T41, 4H3974-AA; experiment: two-hybrid library CCmax; settings: mean of both orientations
T41 chain: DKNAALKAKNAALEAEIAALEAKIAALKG

[42] = target: T42, 4H380-AA; experiment: two-hybrid library CCmax; settings: mean of both orientations
T42 chain: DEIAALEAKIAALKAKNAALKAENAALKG

[43] = target: T43, 4H3915-AA; experiment: two-hybrid library CCmax; settings: mean of both orientations
T43 chain: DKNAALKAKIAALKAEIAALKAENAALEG

[44] = target: T44, 4H483-AA; experiment: two-hybrid library CCmax; settings: mean of both orientations
T44 chain: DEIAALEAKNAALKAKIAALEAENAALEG

[45] = target: T45, 4H464-AA; experiment: two-hybrid library CCmax; settings: mean of both orientations
T45 chain: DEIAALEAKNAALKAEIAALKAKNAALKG

[46] = target: T46, 4H3595-AA; experiment: two-hybrid library CCmax
T46 chain: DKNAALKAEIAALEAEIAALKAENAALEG

[47] = target: T47, 4H3094-AA; experiment: two-hybrid library CCmax; settings: mean of both orientations
T47 chain: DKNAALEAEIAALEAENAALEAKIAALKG

[48] = target: T48, 4H3939-AA; experiment: two-hybrid library CCmax; settings: mean of both orientations
T48 chain: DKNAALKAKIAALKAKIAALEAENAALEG

[49] = target: T49, 4H63-AA; experiment: two-hybrid library CCmax
T49 chain: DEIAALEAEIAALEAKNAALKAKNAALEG

[50] = target: T50, 4H3129-AA; experiment: two-hybrid library CCmax; settings: mean of both orientations
T50 chain: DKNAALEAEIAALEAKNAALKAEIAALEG

[51] = target: T51, 4H2961-AA; experiment: two-hybrid library CCmax
T51 chain: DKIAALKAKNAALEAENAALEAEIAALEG

[52] = target: T52, 4H446-AA; experiment: two-hybrid library CCmax; settings: mean of both orientations
T52 chain: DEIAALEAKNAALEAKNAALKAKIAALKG

[53] = target: T53, 4H324-AA; experiment: two-hybrid library CCmax; settings: mean of both orientations
T53 chain: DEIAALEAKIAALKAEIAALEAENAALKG

[54] = target: T54, 4H3629-AA; experiment: two-hybrid library CCmax
T54 chain: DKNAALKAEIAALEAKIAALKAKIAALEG

[55] = target: T55, 4H3049-AA; experiment: two-hybrid library CCmax; settings: mean of both orientations
T55 chain: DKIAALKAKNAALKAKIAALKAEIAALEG

[56] = target: T56, P9; experiment: two-hybrid library CC1; settings: mean of both orientations
T56 chain: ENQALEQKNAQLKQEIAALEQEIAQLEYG

[57] = target: T57, P8mS; experiment: two-hybrid library CC1
T57 chain: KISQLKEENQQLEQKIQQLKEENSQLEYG

interaction score [1]: 0.314 | interaction score [2]: -1.06 | interaction score [3]: -1.47 | interaction score [4]: 1.62 | interaction score [5]: 1.89 | interaction score [6]: 1.28 | interaction score [7]: -0.664 | interaction score [8]: -1.16 | interaction score [9]: -0.823 | interaction score [10]: -0.136 | interaction score [11]: 1.6 | interaction score [12]: -1.42 | interaction score [13]: 2.05 | interaction score [14]: 1.88 | interaction score [15]: 0.42 | interaction score [16]: 2.03 | interaction score [17]: -1.67 | interaction score [18]: 0.233 | interaction score [19]: 0.452 | interaction score [20]: -0.561 | interaction score [21]: -0.376 | interaction score [22]: 1.32 | interaction score [23]: 0.962 | interaction score [24]: -1.67 | interaction score [25]: 1.99 | interaction score [26]: 0.0321 | interaction score [27]: -0.613 | interaction score [28]: -1.17 | interaction score [29]: -0.236 | interaction score [30]: 1.25 | interaction score [31]: -1.23 | interaction score [32]: -0.892
Binder: DKIAALEAKNAALEAEIAALEAKIAALKG [4H2438-AA]

interaction score [33]: -1.97 | interaction score [34]: -1.46 | interaction score [35]: -0.0165 | interaction score [36]: -1.67 | interaction score [37]: -1.98 | interaction score [38]: -1.8 | interaction score [39]: -0.961 | interaction score [40]: -1.44 | interaction score [41]: -1.82 | interaction score [42]: -1.56 | interaction score [43]: -1.91 | interaction score [44]: -1.35 | interaction score [45]: -0.618 | interaction score [46]: -1.7 | interaction score [47]: -1.08 | interaction score [48]: -1.84 | interaction score [49]: -1.2 | interaction score [50]: -1.5 | interaction score [51]: -1.84 | interaction score [52]: 1.97 | interaction score [53]: -1.69 | interaction score [54]: -1.26 | interaction score [55]: 1.02
Binder: DKIAALKAKNAALEAENAALEAEIAALEG [4H2961-AA]

Binder: KISQLKEENQQLEQKIQQLKEENSQLEYG [P8mS]
interaction score [56]: -2.35 | interaction score [57]: -3.02
